Measured values reported in US20240327475A1 (UNIVERSITY OF MARYLAND COLLEGE PARK, published 2024).

T1: control non-targeted ASM (Olipudase); full recombinant ASM produced by He et al. (1999), which served as … (human, UniProt P17405 62-631)
T1 construct: also called control ASM
T1 sequence (looked up): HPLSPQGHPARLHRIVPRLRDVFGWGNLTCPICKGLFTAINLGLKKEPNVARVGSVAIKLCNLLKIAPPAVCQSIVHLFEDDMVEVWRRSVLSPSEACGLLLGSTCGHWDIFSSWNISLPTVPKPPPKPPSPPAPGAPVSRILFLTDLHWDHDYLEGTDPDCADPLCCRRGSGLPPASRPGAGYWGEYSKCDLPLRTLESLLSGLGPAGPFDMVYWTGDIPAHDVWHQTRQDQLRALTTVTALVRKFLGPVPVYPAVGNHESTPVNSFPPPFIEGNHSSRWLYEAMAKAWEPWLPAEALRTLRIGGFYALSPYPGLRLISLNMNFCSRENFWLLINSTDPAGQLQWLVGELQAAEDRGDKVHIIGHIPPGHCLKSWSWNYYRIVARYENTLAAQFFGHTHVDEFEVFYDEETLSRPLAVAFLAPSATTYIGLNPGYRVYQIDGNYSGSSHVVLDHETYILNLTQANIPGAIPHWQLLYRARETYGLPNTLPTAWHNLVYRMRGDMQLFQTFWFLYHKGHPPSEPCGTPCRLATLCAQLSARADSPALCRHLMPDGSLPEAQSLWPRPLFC

B1: targeted fusion GCase protein J in Example 1 (human GCase with five tandem-repeats of the 2γ3 ICAM-1-targeting peptide at the amino terminus), after … (enzyme)
chain: NNQKIVNIKEKVAQIEAGGGGSGGGGSNNQKIVNIKEKVAQIEAGGGGSGGGGSNNQKIVNIKEKVAQIEAGGGGSGGGGSNNQKIVNIKEKVAQIEAGGGGSGGGGSNNQKIVNIKEKVAQIEAGGGGSGGGGSGFLGARPCIPKSFGYSSVVCVCNATYCDSFDPPTFPALGTFSRYESTRSGRRMELSMGPIQANHTGTGLLLTLQPEQKFQKVKGFGGAMTDAAALNILALSPPAQNLLLKSYFSEEGIGYNIIRVPMASCDFSIRTYTYADTPDDFQLHNFSLPEEDTKLKIPLIHRALQLAQRPVSLLASPWTSPTWLKTNGAVNGKGSLKGQPGDIYHQTWARYFVKFLDAYAEHKLQFWAVTAENEPSAGLLSGYPFQCLGFTPEHQRDFIARDLGPTLANSTHHNVRLLMLDDQRLLLPHWAKVVLTDPEAAKYVHGIAVHWYLDFLAPAKATLGETHRLFPNTMLFASEACVGSKFWEQSVRLGSWDRGMQYSHSIITNLLYHVVGWTDWNLALNPEGGPNWVRNFVDSPIIVDITKDTFYKQPMFYHLGHFSKFIPEGSQRVGLVASQKNDLDAVALMHPDGSAVVVVLNRSSKDVPLTIKDPAVGFLETISPGYSIHTYLWRRQ
modifications: pre-labeled with 125Iodine
B2: ICAM-1 on human cells (HUVEC; human brain endothelial cells and astrocytes of the BBB model; iPS-derived neurons from a Gaucher patient) (receptor, UniProt P05362 28-532, looked up)
chain: QTSVSPSKVILPRGGSVLVTCSTSCDQPKLLGIETPLPKKELLLPGNNRKVYELSNVQEDSQPMCYSNCPDGQSTAKTFLTVYWTPERVELAPLPSWQPVGKNLTLRCQVEGGAPRANLTVVLLRGEKELKREPAVGEPAEVTTTVLVRRDHHGANFSCRTELDLRPQGLELFENTSAPYQLQTFVLPATPPQLVSPRVLEVDTQGTVVCSLDGLFPVSEAQVHLALGDQRLNPTVTYGNDSFSAKASVSVTAEDEGTQRLTCAVILGNQSQETLQTVTIYSFPAPNVILTKPEVSEGTEVTVKCEAHPRAKVTLNGVPAQPLGPRAQLLLKATPEDNGRSFSCSATLEVAGQLIHKNQTRELRVLYGPRLDERDCPGNWTWPENSQQTPMCQAWGNPLPELKCLKDGTFPLPIGESVTVTRDLEGTYLCRARSTQGEVTRKVTVNVLSPRYEIVIITVVAAAVIMGTAGLSTYLYNRQRKIKKYRLQQAQKGTPMKPNTQATPP
notes: whole, on cells; also called ICAM receptor; intercellular adhesion molecule-1

What was measured:
[1] = target: B2; test: cell-based or functional assay
[2] = target: T1, control non-targeted ASM (Olipudase); …; test: Incubation with HUVEC cells (known to express ICAM-1) for 3 h at 37° C., then fixation, permeabilization and anti-ASM + FITC-secondary antibody staining (cell association and uptake)

association to iPS-derived neurons from a Gaucher patient, fold over control non-targeted enzyme [1] [fold] | binding result [2] | Binder
~3 |  | B1
 | no binding | B2
